Test results reported in US20150344570A1 (published 2015).

target: T1, FcγRIIIa (human, UniProt P08637 17-208); assay: SPR (Biacore), antibody captured on antigen-peptide chip, FcγR as analyte; relative binding amount
T1 construct: extracellular domain; also called FcgRIIIa; CD16A; not shown: His tag attached to the C terminus
Description: The expression vectors for the respective H chains were combined in a way that each of the alterations L234Y, G236W, S298A, S239D, A330L, and I332E is present in the same H chain as P329R or in the different H chain from P329R, and the expression vector GpL16-k0 for the L chain was combined with them. Antibodies of interest were expressed and prepared according to the method described in Reference Example 1. The prepared antibodies were used to assay the FcγRIIIa-binding activity. The result of assessment using P329R on the direction of FcγRIIIa recognition by L234Y, G236W, S298A, S239D, A330L, and I332E is summarized in Table 12.
Analysis of interaction between objective antibody and the FcγR was carried out using Biacore T100 (GE Healthcare). HBS-EP+ (GE Healthcare) was used as the running buffer, and the measurement temperature was set to 25° C. Chips produced by immobilizing the antigen peptide by the amine coupling method to a Series S Sencor Chip CM5 (GE Healthcare), or alternatively, chips produced by allowing preliminarily biotinylated antigen peptides to interact with and immobilize onto a Series S Sensor Chip SA (certified) (GE Healthcare) were used. Antibodies of interest were captured onto an antigen peptide-immobilized chip, and allowed to interact to each FcγR diluted with running buffer. To regenerate and repeatedly use the chip, the antibodies captured on the chip were washed off by reacting 10 mM glycine-HCl, pH 1.5.

T1 sequence (P08637 17-208): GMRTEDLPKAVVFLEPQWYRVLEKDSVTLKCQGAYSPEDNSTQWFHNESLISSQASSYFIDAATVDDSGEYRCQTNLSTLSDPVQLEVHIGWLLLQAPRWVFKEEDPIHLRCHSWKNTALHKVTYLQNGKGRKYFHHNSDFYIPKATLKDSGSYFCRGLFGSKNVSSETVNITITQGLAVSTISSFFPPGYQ

FcγRIIIa BINDING ACTIVITY (relative) | Binder
60 relative, GpH7-A5/GpH7-B3/GpL16-k0 = 100 | GpH7-A5/GpH7-HA5/GpL16-k0 (antibody, human IgG1, kappa, Anti-glypican-3 IgG1 heterodimer; L234Y and P329R in H2) heavy 1: not shown heavy 2: QVQLVQSGAEVKKPGASVTVSCKASGYTFTDYEMHWIRQPPGEGLEWIGAIDPKTGDTAYSESFQDRVTLTADKSTSTAYMELSSLTSEDTAVYYCTRFYSYTYWGQGTLVTVSSASTKGPSVFPLAPSSKSTSGGTAALGCLVKDYFPEPVTVSWNSGALTSGVHTFPAVLQSSGLYSLSSVVTVPSSSLGTQTYICNVNHKPSNTKVDKKVEPKSCDKTHTCPPCPAPEYLGGPSVFLFPPKPKDTLMISRTPEVTCVVVDVSHEDPEVKFNWYVDGVEVHNAKTKPREEQYNSTYRVVSVLTVLHQDWLNGKEYKCKVSNKALRAPIEKTISKAKGQPREPQVYTLPPSRDELTKNQVSLTCLVKGFYPSDIAVEWESNGQPENNYKTTPPVLDSDGSFFLYSKLTVDKSRWQQGNVFSCSVMHEALHNHYTQESLSLSP light: DIVMTQSPLSLPVTPGEPASISCQASESLVHSNRNTYLHWYLQKPGQSPQLLIYKVSNRFSGVPDRFSGSGSGTDFTLKISRVEAEDVGVYYCSQNTHVPPTFGQGTKVEIERTVAAPSVFIFPPSDEQLKSGTASVVCLLNNFYPREAKVQWKVDNALQSGNSQESVTEQDSKDSTYSLSSTLTLSKADYEKHKVYACEVTHQGLSSPVTKSFNRGEC
56 relative, GpH7-A5/GpH7-B3/GpL16-k0 = 100 | GpH7-A5/GpH7-HA6/GpL16-k0 (antibody, human IgG1, kappa, Anti-glypican-3 IgG1 heterodimer; G236W and P329R in H2) heavy 1: not shown heavy 2: QVQLVQSGAEVKKPGASVTVSCKASGYTFTDYEMHWIRQPPGEGLEWIGAIDPKTGDTAYSESFQDRVTLTADKSTSTAYMELSSLTSEDTAVYYCTRFYSYTYWGQGTLVTVSSASTKGPSVFPLAPSSKSTSGGTAALGCLVKDYFPEPVTVSWNSGALTSGVHTFPAVLQSSGLYSLSSVVTVPSSSLGTQTYICNVNHKPSNTKVDKKVEPKSCDKTHTCPPCPAPELLWGPSVFLFPPKPKDTLMISRTPEVTCVVVDVSHEDPEVKFNWYVDGVEVHNAKTKPREEQYNSTYRVVSVLTVLHQDWLNGKEYKCKVSNKALRAPIEKTISKAKGQPREPQVYTLPPSRDELTKNQVSLTCLVKGFYPSDIAVEWESNGQPENNYKTTPPVLDSDGSFFLYSKLTVDKSRWQQGNVFSCSVMHEALHNHYTQESLSLSP light: DIVMTQSPLSLPVTPGEPASISCQASESLVHSNRNTYLHWYLQKPGQSPQLLIYKVSNRFSGVPDRFSGSGSGTDFTLKISRVEAEDVGVYYCSQNTHVPPTFGQGTKVEIERTVAAPSVFIFPPSDEQLKSGTASVVCLLNNFYPREAKVQWKVDNALQSGNSQESVTEQDSKDSTYSLSSTLTLSKADYEKHKVYACEVTHQGLSSPVTKSFNRGEC
84 relative, GpH7-A5/GpH7-B3/GpL16-k0 = 100 | GpH7-A5/GpH7-HA11/GpL16-k0 (antibody, human IgG1, kappa, Anti-glypican-3 IgG1 heterodimer; S298A and P329R in H2) heavy 1: not shown heavy 2: QVQLVQSGAEVKKPGASVTVSCKASGYTFTDYEMHWIRQPPGEGLEWIGAIDPKTGDTAYSESFQDRVTLTADKSTSTAYMELSSLTSEDTAVYYCTRFYSYTYWGQGTLVTVSSASTKGPSVFPLAPSSKSTSGGTAALGCLVKDYFPEPVTVSWNSGALTSGVHTFPAVLQSSGLYSLSSVVTVPSSSLGTQTYICNVNHKPSNTKVDKKVEPKSCDKTHTCPPCPAPELLGGPSVFLFPPKPKDTLMISRTPEVTCVVVDVSHEDPEVKFNWYVDGVEVHNAKTKPREEQYNATYRVVSVLTVLHQDWLNGKEYKCKVSNKALRAPIEKTISKAKGQPREPQVYTLPPSRDELTKNQVSLTCLVKGFYPSDIAVEWESNGQPENNYKTTPPVLDSDGSFFLYSKLTVDKSRWQQGNVFSCSVMHEALHNHYTQESLSLSP light: DIVMTQSPLSLPVTPGEPASISCQASESLVHSNRNTYLHWYLQKPGQSPQLLIYKVSNRFSGVPDRFSGSGSGTDFTLKISRVEAEDVGVYYCSQNTHVPPTFGQGTKVEIERTVAAPSVFIFPPSDEQLKSGTASVVCLLNNFYPREAKVQWKVDNALQSGNSQESVTEQDSKDSTYSLSSTLTLSKADYEKHKVYACEVTHQGLSSPVTKSFNRGEC
